Source: paper PMC6736755

Molecular target: H-2 I-A^d class II MHC molecule (mouse)
Experiment: radioligand binding

OVA323–339 peptide (WT)
IC50: 2 nM
